{"source": "patent US20240209093A1", "about": "(I MAB BIOPHARMA, published 2024)", "binders": {"B1": {"name": "TIGIT-Fc-112-VH47 (bispecific antibody, human IgG1, kappa)", "heavy": "not shown", "light": "DIVMTQSPSSLSASVGDRVTITCKASQDVDTAVAWYQQKPGKAPKLLIYWASARHTGVPSRFSGSGSGTDFTFTISSLQPEDIATYYCQQYSNYPLTFGQGTKLEIKRTVAAPSVFIFPPSDEQLKSGTASVVCLLNNFYPREAKVQWKVDNALQSGNSQESVTEQDSKDSTYSLSSTLTLSKADYEKHKVYACEVTHQGLSSPVTKSFNRGEC"}, "B2": {"name": "112-VH47 (VHH)", "VHH": "EVQLVESGGGLVQPGGSLRLSCAASGFTFSSGTQFSDSKIDWYRQAPGKGLVWVAGIFSTGSTIYEDSVKGRFTISRDNAKNTGYLQMNSLRAEDTAVYYCRVIGRGILAWGQGTLVTVSS", "notes": "Humanized anti-PD-L1 single domain antibody"}, "B3": {"name": "93-VH-6 (VHH)", "VHH": "EVQLVESGGGLVQPGGSLRLSCAASGFTFTFRHYVMGWFRQAPGKEREFVAAISWSGSGSYYADSVKGRFTISRDNSKNTVYLQMNSLRAEDTAVYYCAADMTTRMSQASREYDYWGQGTLVTVSS", "notes": "Humanized anti-PD-L1 single domain antibody; the assays imply a human Fc part that is not described; also called PD-L1 Ab (93-VH6); 93-VH6 sdAb"}, "B4": {"name": "34C5-L-93VH6-IgG1 (bispecific antibody)", "heavy": "not shown", "light": "DIQMTQSPSSLSASVGDRVTITCRASQDISDYLNWYQQKPGKAPKLLIYYISRLHSGVPSRFSGSGSGTDYTLTISSLQPEDFATYYCQQGHTLPWTFGGGTKVEIKGGGGSGGGGSGGGGSGGGGSEVQLVESGGGLVQPGGSLRLSCAASGFTFTFRHYVMGWFRQAPGKEREFVAAISWSGSGSYYADSVKGRFTISRDNSKNTVYLQMNSLRAEDTAVYYCAADMTTRMSQASREYDYWGQGTLVTVSSRTVAAPSVFIFPPSDEQLKSGTASVVCLLNNFYPREAKVQWKVDNALQSGNSQESVTEQDSKDSTYSLSSTLTLSKADYEKHKVYACEVTHQGLSSPVTKSFNRGEC", "notes": "Symmetric 'two to two' anti-CD47/PD-L1 bispecific"}, "B5": {"name": "TIGIT-CL-93-VH6 (bispecific antibody, human IgG1, kappa)", "heavy": "not shown", "light": "DIVMTQSPSSLSASVGDRVTITCKASQDVDTAVAWYQQKPGKAPKLLIYWASARHTGVPSRFSGSGSGTDFTFTISSLQPEDIATYYCQQYSNYPLTFGQGTKLEIKRTVAAPSVFIFPPSDEQLKSGTASVVCLLNNFYPREAKVQWKVDNALQSGNSQESVTEQDSKDSTYSLSSTLTLSKADYEKHKVYACEVTHQGLSSPVTKSFNRGECGGGGSGGGGSGGGGSGGGGSEVQLVESGGGLVQPGGSLRLSCAASGFTFTFRHYVMGWFRQAPGKEREFVAAISWSGSGSYYADSVKGRFTISRDNSKNTVYLQMNSLRAEDTAVYYCAADMTTRMSQASREYDYWGQGTLVTVSS", "notes": "Two 93-VH6 fused to the C-termini of the anti-TIGIT light chains; also called TIGIT-CL-PD-L1 format"}, "B6": {"name": "13H3-L-93VH6-IgG1 (bispecific antibody)", "heavy": "not shown", "light": "DIVMTQSPDSLAVSLGERATINCKSSQSVLYAGNNRNYLAWYQQKPGQPPKLLINQASTRASGVPDRFSGSGSGTEFTLIISSLQAEDVAIYYCQQYYTPPLAFGGGTKLEIKGGGGSGGGGSGGGGSGGGGSEVQLVESGGGLVQPGGSLRLSCAASGFTFTFRHYVMGWFRQAPGKEREFVAAISWSGSGSYYADSVKGRFTISRDNSKNTVYLQMNSLRAEDTAVYYCAADMTTRMSQASREYDYWGQGTLVTVSSRTVAAPSVFIFPPSDEQLKSGTASVVCLLNNFYPREAKVQWKVDNALQSGNSQESVTEQDSKDSTYSLSSTLTLSKADYEKHKVYACEVTHQGLSSPVTKSFNRGEC", "notes": "as for B4"}}, "key": {"[1]": {"biological_target": "T1, His-tagged human TIGIT-ECD protein (human, UniProt Q495A1 22-141)", "T1 construct": "extracellular domain; also called hTIGIT-his", "T1 sequence (looked up)": "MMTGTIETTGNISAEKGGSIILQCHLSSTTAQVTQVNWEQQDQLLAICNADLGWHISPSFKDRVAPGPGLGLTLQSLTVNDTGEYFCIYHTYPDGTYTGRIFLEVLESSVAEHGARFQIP", "assay": "ELISA on His-tagged human TIGIT"}, "[2]": {"biological_target": "T2, human PD-L1 on cells (human, UniProt Q9NZQ7 19-290)", "T2 construct": "whole, on cells; also called Raji cells overexpressing human PD-L1; Raji-PD-L1 cells", "T2 sequence (Q9NZQ7 19-290)": "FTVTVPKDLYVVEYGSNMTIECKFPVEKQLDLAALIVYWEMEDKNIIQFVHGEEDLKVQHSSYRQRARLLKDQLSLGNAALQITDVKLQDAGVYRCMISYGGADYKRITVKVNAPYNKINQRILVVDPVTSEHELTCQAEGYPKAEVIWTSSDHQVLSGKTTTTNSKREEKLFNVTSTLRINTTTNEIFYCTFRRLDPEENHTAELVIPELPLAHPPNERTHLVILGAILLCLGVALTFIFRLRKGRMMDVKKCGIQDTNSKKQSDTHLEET", "assay": "flow cytometry on Raji cells overexpressing human PD-L1, PE-anti-hu IgG [panel C]", "method": "Furthermore, binding capability of the anti-PD-L1/TIGIT bsAbs of the present application with cells expressing PD-L1 was analyzed by using Raji-PD-L1 cells. Briefly, 50 μl Raji cells overexpressing human PD-L1 were seeded into 96 well plate with 2*10⁵ cells/well."}, "[3]": {"biological_target": "T3, human PD-L1-his (human, UniProt Q9NZQ7 19-238)", "T3 construct": "also called hPD-L1-his; human His-PD-L1", "T3 sequence (Q9NZQ7 19-238 limits assumed)": "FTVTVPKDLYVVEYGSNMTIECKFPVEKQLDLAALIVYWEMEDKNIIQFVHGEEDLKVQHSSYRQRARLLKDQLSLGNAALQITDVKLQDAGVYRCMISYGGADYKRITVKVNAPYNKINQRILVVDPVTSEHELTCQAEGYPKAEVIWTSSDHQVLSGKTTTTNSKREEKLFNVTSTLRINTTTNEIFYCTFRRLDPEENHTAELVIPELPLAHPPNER", "assay": "ELISA, plate coated with human His-PD-L1, detection goat anti-human IgG Fc HRP [panel B]", "description": "(§1) Binding of the anti-PD-L1/TIGIT bsAb molecules with human PD-L1 was further analyzed by ELISA."}, "[4]": {"biological_target": "T2, human PD-L1 on cells", "assay": "flow cytometry on Raji cells overexpressing human PD-L1, PE-anti-hu IgG", "method": "Binding capability of the anti-PD-L1 antibody of the present application was further evaluated by using Raji cells overexpressing human PD-L1. Briefly, 50 μl Raji cells overexpressing human PD-L1 were seeded into 96 well plate at a concentration of 2*10⁵ cells/well. […] Then the cells were washed twice by FACS buffer and supplemented with 100 μl PE-anti-hu IgG, followed by incubation on ice for 1 hour. After incubation, the cells in each well were collected and resuspended with 65 μl FACS buffer for analysis by flow cytometry."}, "[5]": {"biological_target": "T3, human PD-L1-his", "assay": "ELISA, plate coated with human His-PD-L1, detection goat anti-human IgG Fc HRP", "description": "Binding properties of the humanized anti-PD-L1 antibody of the present application were first evaluated by ELISA assay."}, "[6]": {"biological_target": "T3, human PD-L1-his", "assay": "SPR, Biacore, full kinetics, antigen 100-1.5625 nM"}, "[7]": {"biological_target": "T3, human PD-L1-his", "assay": "SPR, Biacore T200, antibody captured on protein A chip, hPD-L1-his 6.25-100 nM as analyte", "method": "The binding affinity of the PD-L1/TIGIT bsAb to recombinant human his-tagged PD-L1 protein was tested by BIACORE®. […] A series of dilutions of human PD-L1 protein (6.25 nM-100 nM) were injected over captured antibody at a flow rate of 10 μL/min. The antigen was allowed to associate for 180 s and dissociate for 1200 s. All the experiments were carried out on a Biacore T200. Data analysis was carried out using Biacore T200 evaluation software."}, "[8]": {"biological_target": "T2, human PD-L1 on cells", "assay": "flow cytometry on RKO cells (endogenous CD47 and PD-L1), APC-labelled secondary antibody", "method": "(§2) RKO cells are human colon carcinoma cell lines that express endogenous level of human CD47 and human PD-L1 on the surface. RKO cells were incubated with serial diluted anti-CD47/PD-L1 bispecific antibodies, parental CD47 or PD-L1 monospecific antibodies at 4° C. for 30 minutes. Then cells were washed with FACS buffer three times, followed by incubation with APC-labeled secondary antibody at 4° C. for 30 minutes. Then cells were washed with FACS buffer for three times. Binding was measured by flow cytometry."}, "[9]": {"biological_target": "T3, human PD-L1-his", "assay": "ELISA, plate coated with human His-PD-L1, detection goat anti-human IgG Fc HRP [panel A]", "description": "as §1"}, "[10]": {"biological_target": "T4, Tag1-CD47 (UniProt Q08722 19-139)", "T4 construct": "Bought kit reagent", "T4 sequence (Q08722 19-139 limits assumed)": "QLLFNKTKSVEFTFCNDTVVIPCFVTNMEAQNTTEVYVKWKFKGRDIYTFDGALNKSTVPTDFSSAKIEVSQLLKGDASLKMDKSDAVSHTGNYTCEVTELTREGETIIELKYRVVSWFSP", "assay": "HTRF CD47/SIRPα binding assay (Cisbio): blocking of Tag2-SIRPa binding to Tag1-CD47; axis numbers -3 to 3 read as log10 of nM", "description": "Fluorescence data were read on a PerkinElmer Envision plate reader using laser as light source."}, "[11]": {"biological_target": "T2, human PD-L1 on cells", "assay": "flow cytometry on RKO cells, which carry both human CD47 and human PD-L1; APC-labelled secondary antibody; signal not resolved between the two arms", "method": "as §2"}, "[12]": {"biological_target": "T1, His-tagged human TIGIT-ECD protein", "assay": "ELISA on His-tagged human TIGIT", "remark": "listed apart in the source"}, "[13]": {"biological_target": "T1, His-tagged human TIGIT-ECD protein", "assay": "SPR, Biacore T200, antibody captured on protein A chip, hTIGIT-his 0.78-12.5 nM as analyte", "description": "The antibodies were captured by Protein A chip. […] The association phase was 180 s and the dissociation phase was 1200 s."}}, "note": "Like-named read-outs stand apart in the source and are kept apart here.", "data": [{"binder": "B1", "values": [{"measurement": "EC50 (read off the curve)", "setting": "[1]", "value": "~0.01", "unit": "nM"}, {"measurement": "EC50 (read off the curve)", "setting": "[2]", "value": "~0.4", "unit": "nM"}, {"measurement": "EC50 (read off the curve)", "setting": "[3]", "value": "~0.02", "unit": "nM"}]}, {"binder": "B2", "values": [{"measurement": "EC50 (read off the curve)", "setting": "[4]", "value": "~0.3", "unit": "nM"}, {"measurement": "EC50 (read off the curve)", "setting": "[5]", "value": "~0.009", "unit": "nM"}, {"measurement": "EC50 (read off the curve)", "setting": "[2]", "value": "~0.3", "unit": "nM"}, {"measurement": "EC50 (read off the curve)", "setting": "[3]", "value": "~0.009", "unit": "nM"}]}, {"binder": "B3", "values": [{"measurement": "Kd", "setting": "[6]", "value": 2.06, "unit": "nM"}, {"measurement": "koff", "setting": "[6]", "value": 0.000197, "unit": "s⁻¹"}, {"measurement": "kon", "setting": "[6]", "value": 95900, "unit": "M⁻¹ s⁻¹"}, {"measurement": "EC50 (read off the curve)", "setting": "[4]", "value": "~0.4", "unit": "nM"}, {"measurement": "EC50 (read off the curve)", "setting": "[5]", "value": "~0.02", "unit": "nM"}, {"measurement": "Kd", "setting": "[7]", "value": 3.64, "unit": "nM"}, {"measurement": "koff", "setting": "[7]", "value": 0.000128, "unit": "s⁻¹"}, {"measurement": "kon", "setting": "[7]", "value": 35300, "unit": "M⁻¹ s⁻¹"}, {"measurement": "EC50 (read off the curve)", "setting": "[8]", "value": "~0.3", "unit": "nM"}, {"measurement": "EC50 (read off the curve)", "setting": "[9]", "value": "~1", "unit": "nM"}]}, {"binder": "B4", "values": [{"measurement": "IC50 (read off the curve)", "setting": "[10]", "value": "~1", "unit": "nM"}, {"measurement": "binding result", "setting": "[11]", "value": "binds"}]}, {"binder": "B5", "values": [{"measurement": "EC50 (read off the curve)", "setting": "[12]", "value": "~0.5", "unit": "nM"}, {"measurement": "Kd", "setting": "[7]", "value": 3.97, "unit": "nM"}, {"measurement": "koff", "setting": "[7]", "value": 0.000143, "unit": "s⁻¹"}, {"measurement": "kon", "setting": "[7]", "value": 35900, "unit": "M⁻¹ s⁻¹"}, {"measurement": "Kd", "setting": "[13]", "value": 0.103, "unit": "nM"}, {"measurement": "koff", "setting": "[13]", "value": 0.000176, "unit": "s⁻¹"}, {"measurement": "kon", "setting": "[13]", "value": "1.72e+06", "unit": "M⁻¹ s⁻¹"}, {"measurement": "EC50 (read off the curve)", "setting": "[9]", "value": "~1", "unit": "nM"}]}, {"binder": "B6", "values": [{"measurement": "IC50 (read off the curve)", "setting": "[10]", "value": "~1", "unit": "nM"}, {"measurement": "binding result", "setting": "[11]", "value": "binds"}]}]}
